This series concerns the target T1, NifD-NifK proteins from K. oxytoca (expressed from MIT2.1 in E. coli JM109).
T1 chain 1: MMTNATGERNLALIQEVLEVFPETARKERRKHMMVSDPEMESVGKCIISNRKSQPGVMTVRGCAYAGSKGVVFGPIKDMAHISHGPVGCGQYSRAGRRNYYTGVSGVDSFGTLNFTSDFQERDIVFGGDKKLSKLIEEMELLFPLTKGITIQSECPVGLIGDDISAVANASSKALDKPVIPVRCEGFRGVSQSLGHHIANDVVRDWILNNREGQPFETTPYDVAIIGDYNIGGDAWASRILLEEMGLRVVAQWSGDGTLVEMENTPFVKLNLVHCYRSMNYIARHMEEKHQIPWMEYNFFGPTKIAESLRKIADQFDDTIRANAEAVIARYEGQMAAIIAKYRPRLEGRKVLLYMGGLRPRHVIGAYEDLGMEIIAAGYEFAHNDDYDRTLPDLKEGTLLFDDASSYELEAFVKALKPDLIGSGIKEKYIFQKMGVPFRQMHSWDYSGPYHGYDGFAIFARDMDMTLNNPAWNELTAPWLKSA
T1 chain 2: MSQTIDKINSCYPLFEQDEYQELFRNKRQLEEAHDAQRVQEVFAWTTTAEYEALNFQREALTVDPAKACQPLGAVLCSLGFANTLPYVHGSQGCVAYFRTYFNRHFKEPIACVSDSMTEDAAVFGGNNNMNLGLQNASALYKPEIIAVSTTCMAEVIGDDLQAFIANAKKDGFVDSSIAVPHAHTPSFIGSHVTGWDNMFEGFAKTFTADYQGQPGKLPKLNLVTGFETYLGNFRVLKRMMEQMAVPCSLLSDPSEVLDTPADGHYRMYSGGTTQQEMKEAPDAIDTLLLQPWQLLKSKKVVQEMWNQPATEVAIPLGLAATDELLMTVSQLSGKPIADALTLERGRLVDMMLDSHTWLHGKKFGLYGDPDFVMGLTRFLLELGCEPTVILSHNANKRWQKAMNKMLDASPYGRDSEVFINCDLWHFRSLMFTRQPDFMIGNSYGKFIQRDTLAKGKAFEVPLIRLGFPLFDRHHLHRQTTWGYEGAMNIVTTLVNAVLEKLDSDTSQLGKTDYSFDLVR

B1: Carboxydothermus pertinax NifH (Genbank Accession No. WP_075859892) (protein)
chain: MTRKIAIYGKGGIGKSTTQQNTAAALAYFYGKKVLIHGCDPKADCTRLILGGKPQETVMDTMRELGEDAVTIDRVVKTGFCGIKCVESGGPEPGVGCAGRGVITAISLMEELGAYTPDLDFIFFDVLGDVVCGGFAMPVREGKAQEIYIVASGEMMALYAANNICRGMVKYAEQSGVRLGGIICNSRNVDGERELMEEFCSKIGTQMIHFIPRDNIVQKAEFNRQTVTQFDPNCNQAQEYRELARKIIENDMFVIPKPMTMDEMENLVIKYGLLE
For B1, the “acetylene reduction assay (ethylene production) in E. coli JM109 with modified MIT2.1” value (“acetylene reduction assay” below) is listed as “none of the JM109 strains carrying the modified MIT2.1 plasmids with the NifH variants reduced acetylene, instead showing the same background level of ethylene production as JM109 carrying the negative control plasmid pB-ori”.

B2: M laminosus NifH (Genbank Accession No. Q47917) (protein)
chain: MTENIRQIAFYGKGGIGKSTTSQNTLAAMAEMGQRIMIVGCDPKADSTRLMLHSKAQTTVLHLAAERGAVEDLELEEVMLTGFRGVKCVESGGPEPGVGCAGRGIITAINFLEENGAYQDLDFVSYDVLGDVVCGGFAMPIREGKAQEIYIVTSGEMMAMYAANNIARGILKYAHSGGVRLGGLICNSRKVDREAELIENLAERLNTQMIHFVPRDNIVQHAELRRMTVNEYAPDSNQSQEYRALAKKIINNTKLTIPTPMEMDELEALLIEYGILDDDTKHADIIGKPAEASAK
As to B2, the “acetylene reduction assay” value is listed as “none of the JM109 strains carrying the modified MIT2.1 plasmids with the NifH variants reduced acetylene, instead showing the same background level of ethylene production as JM109 carrying the negative control plasmid pB-ori”.

B3: C. tepidum NifH (Genbank Accession No. WP_010933198) (protein)
chain: MRKVAIYGKGGIGKSTTTQNTVAGLAEAGKKVMVVGCDPKADSTRLLLGGLQQKTVLDTLREEGEEVELEDIIKEGYRNTRCTESGGPEPGVGCAGRGIITSVNLLEQLGAYDDEWELDYVFYDVLGDVVCGGFAMPIRDGKAEEIYIVCSGEMMAMYAANNICKGILKYADAGGVRLGGLICNSRKVDNEREMIEELARRLGTQMIHFVPRDNFVQRAEINRKTVIDFDPTHPQADEYRALAKKIDENKMFVIPKPLEIDELESLLIEFGIAN
Turning to B3, the “acetylene reduction assay” value is reported as “none of the JM109 strains carrying the modified MIT2.1 plasmids with the NifH variants reduced acetylene, instead showing the same background level of ethylene production as JM109 carrying the negative control plasmid pB-ori”.

B4: M thermautotrophicus NifH (Genbank Accession No. AAB86034) (protein)
chain: MVRKIAIYGKGGIGKSTTQQNTAAAMSYFHGKNVMIHGCDPKADSTRLILGGKMQTTMMDTLRELGEVACTPDKVIETGFGGIKCVESGGPEPGVGCAGRGVITAITLMERHGVYEKDLDFVFFDVLGDVVCGGFAMPVRDGKAEEIYIVASGEMMALYAANNICKGMVKYARQSGVRLGGIICNSRNVDGEKELLEEFCERIGTQMIHFVPRDNIVQKAEFNKKSVIEFDPECNQSQEYRELARKIIENKDFVIPEPMTMDEMEELVVKYGVMD
As to B4, the “acetylene reduction assay” value is “none of the JM109 strains carrying the modified MIT2.1 plasmids with the NifH variants reduced acetylene, instead showing the same background level of ethylene production as JM109 carrying the negative control plasmid pB-ori”.

B5: H. modesticaldum NifH (Genbank Accession No. WP_012282218) (protein)
chain: MRQIAIYGKGGIGKSTTTQNTVSALAEMGKKVMIVGCDPKADSTRLILHSKAQATVMDLAREKGTVEDLELSDVLLTGFADIRCAESGGPEPGVGCAGRGVITAINFLEENGAYTPDLDYVFYDVLGDVVCGGFAMPIRENKAQEIYIVTSGEMMAMYAANNIARGILKYASSGKVRLGGLICNSRKVDKEYELIDELATRLGTQMIHFLPRDNQVQRAELRRMTVIEYSPDHPQADEYRALAKKIDENKKLVIPTPLTMDELEDLLIQYGILEDEETAAAKLG
Regarding B5, the “acetylene reduction assay” value is on record as “none of the JM109 strains carrying the modified MIT2.1 plasmids with the NifH variants reduced acetylene, instead showing the same background level of ethylene production as JM109 carrying the negative control plasmid pB-ori”.

B6: M. infernus NifH (Genbank Accession No. WP_013099459) (protein)
chain: MSFDEIAPNAKKVAIYGKGGIGKSTTTQNTAAALAYYYKLKGMIHGCDPKADSTRMILHGKPQETVMDVLREEGEEGVTLEKVRKVGFCGIYCVESGGPEPGVGCAGRGVITAVNLMKELGGYPDDLDFLFFDVLGDVVCGGFAMPLRDGLAKEIYIVSSGEMMALYAANNIAKGILKYAEQSGVRLGGIICNSRNVDGERELMEEFCDKLGTKLIHFIPRDNIVQKAEFNKMTVVEFAPDHPQALEYKKLGKKIMDNDELVIPTPLSMDELEKLVEKYGLYDK
As to B6, the “acetylene reduction assay” value is “none of the JM109 strains carrying the modified MIT2.1 plasmids with the NifH variants reduced acetylene, instead showing the same background level of ethylene production as JM109 carrying the negative control plasmid pB-ori”.

B7: Geobacter sp. NifH (Genbank Accession No. WP_015837436) (protein)
chain: MRQIAIYGKGGIGKSTTTQNTVAGLASIGKKVMIVGCDPKADSTRLILHAKAQSTVMDLVRELGTVEDLELEDVMKVGYGDVKCVESGGPEPGVGCAGRGVITAINFLEENGAYTPDLDFVFYDVLGDVVCGGFAMPIREGKAEEIYIVCSGEMMAMYAANNIAKGILKYATSGKVRLAGLICNARKTDKEYELIDALAKKLGTQMIHFVPRDNQVQRAELRRMTVIEYSPEHPQAQEYRTLAQKIADNKMLVVPTPLEMEELEDLLMEFGIMEAEDESIVGVAEAAAV
Turning to B7, the “acetylene reduction assay” value is given as “none of the JM109 strains carrying the modified MIT2.1 plasmids with the NifH variants reduced acetylene, instead showing the same background level of ethylene production as JM109 carrying the negative control plasmid pB-ori”.

The values above are taken from US20240117326.
